B1: synaptotagmin 1 (natural protein, UniProt P21707 1-421, looked up)
chain: MVSASHPEALAAPVTTVATLVPHNATEPASPGEGKEDAFSKLKQKFMNELHKIPLPPWALIAIAIVAVLLVVTCCFCVCKKCLFKKKNKKKGKEKGGKNAINMKDVKDLGKTMKDQALKDDDAETGLTDGEEKEEPKEEEKLGKLQYSLDYDFQNNQLLVGIIQAAELPALDMGGTSDPYVKVFLLPDKKKKFETKVHRKTLNPVFNEQFTFKVPYSELGGKTLVMAVYDFDRFSKHDIIGEFKVPMNTVDFGHVTEEWRDLQSAEKEEQEKLGDICFSLRYVPTAGKLTVVILEAKNLKKMDVGGLSDPYVKIHLMQNGKRLKKKKTTIKKNTLNPYYNESFSFEVPFEQIQKVQVVVTVLDYDKIGKNDAIGKVFVGYNSTGAELRHWSDMLANPRRPIAQWHTLQVEEEVDAMLAVKK
notes: synaptotagmin 1, endogenous in synaptosomes from brains of 2-10 day old Sprague Dawley rats; also called STG; STG 1; source: endogenous, rat brain synaptosome lysate
B2: stonin2 (natural protein, UniProt D4AB66 1-895, looked up)
chain: MTTLDHVIATHQSEWVSFSEEPLFPTPLEGGTEEHFPGLSSSSDRSESSSGENHAVDEGSQDLSHSEQDDSSEKMGLISEAASPPGSPVQPTPDLASAISNWVQFEDDTPWSNTSAPHKETALTLTVPCWTCPSLDSLRRCPLASESSWTTHSEDTSSPSVAPSYTDLQLINAEEQASGRASGTDSTDNSSSLQEDEEVEMETISWWAGSPAMNGHPAVPQVTTARFPSWVTFEDNEVGCPSPTVPSPKKPNAPSAATAGPDVPFNSTGSFKRDRPKSTLMNLSKVQKLDISSLNRPPSVTEAPPWRATNPFLNESLQDIQPSPINPFSAFFEEQERRSQNSSISGTSGKSQRDSLIVIYQDAISFDDSGKSQSHPDAIEKLKQLQIDDPDPVGNAALPDDDPTASVEPDAPSPTSALSQPRDGWPMMLRIPEKKNIMSSRHWGPIYIKLTDSGYLQLYYEQGLEKPFREFKLEICHEVSEPRLQNYDENGRIHSLRIDRVTYKEKKKYQPKPAVAHAAEREQVIKLGTTNYDDFLSFIHAVQDRLMDLPVQSMDLSTVGLNYLEEEITVDIRDEFSGTVSKGDNQILQHHVLTRIHILSFLSGLAECRLGLNDILIKGNEIVSRQDIMPTTTTKWIKLHECRFHGCVDEDVFNSSRVILFNPLDACRFELMRFRTVFAEKTLPFTLRTAASINGAEVEVQSWLRMSPGFSSNRDPLTQVPCENVMVRYPVPSEWVKNFRRESVLGEKSLKAKVNRGASFGSAGASGSEPVMRVTLGTAKYEHAFNSIVWRINRLPDKNSASGHPHCFFCHLELGSDREVPSRFANHVNVEFSMPTTSASKAAVRSISVEDKPDVRKWVNYSAHYSYKVEIEQKKSLKPDFEGEDLENPKECGVQ
notes: stonin 2, endogenous in rat brain synaptosomes; source: endogenous, rat brain synaptosome lysate
B3: short-variant intersectin (natural protein, UniProt Q9WVE9-1 1-1217, looked up)
chain: MAQFPTPFGGSLDIWAITVEERAKHDQQFQSLKPISGFITGDQARNFFFQSGLPQPVLAQIWALADMNKDGRMDQVEFSIAMKLIKLKLQGYQLPPALPPVMKQQPAAISSAPAFGIGGMAGMPPLTAVAPVPMGSIPVVGMSPPLVSSVPQAAVPPLANGAPPVIQPLPAFAHPAATLPKSSSFSRSGPGSQLNTKLQKAQSFDVASAPAAAEWAVPQSSRLKYRQLFNSHDKTMSGHLTGPQARTILMQSSLPQAQLASIWNLSDIDQDGKLTAEEFILAMHLIDVAMSGQPLPPVLPPEYIPPSFRRVRSGSGMSVISSSSADQRLPEEPSSEDEQQVEKKLPVTFEDKKRENFERGNLELEKRRQALLEQQRKEQERLAQLERAEQERKERERQEQERKRQLELEKQLEKQRELERQREEERRKEIERREAAKRELERQRQLEWERNRRQELLTQRNKDQEGIVVLKARRKTLEFELEALNDKKHQLEGKLQDIRCRLATQRQEIESTNKSRELRIAEITHLQQQLQESQQMLGRLIPEKQILSDQLKQVQQNSLHRDSLLTLKRALEAKELARQQLREQLDEVEKETRSKLQEIDVFNNQLKELREIHSKQQLQKQRSIEAERLKQKEQERKSLELEKQKEEGQRRVQERDKQWQEHVQQEEQQRPRKPHEEDKLKREDSVKKKEAEERAKPEVQDKQSRLFHPHQEPAKPAQAPWPTTEKGPLTISAQESAKVVYYRALYPFESRSHDEITIQPGDIVMVKGEWVDESQTGEPGWLGGELKGKTGWFPANYAEKIPENEIPTPAKPVTDLTSAPAPKLALRETPAPLPVTSSEPSTTPNNWADFSSTWPSSTNEKPETDNWDTWAAQPSLTVPSAGQLRQRSAFTPATATGSSPSPVLGQGEKVEGLQAQALYPWRAKKDNHLNFNKSDVITVLEQQDMWWFGEVQGQKGWFPKSYVKLISGPVRKSTSIDTGPTEAPSSLKRVASPAAKPAIPGEEFVAMYTYESSEHGDLTFQQGDVIVVTKKDGDWWTGTVGETSGVFPSNYVRLKDSEGSGTAGKTGSLGKKPEIAQVIASYTATGPEQLTLAPGQLILIRKKNPGGWWEGELQARGKKRQIGWFPANYVKLLSPGTSKITPTELPKTAVQPAVCQVIGMYDYTAQNDDELAFSKGQIINVLSKEDPDWWKGEVSGQVGLFPSNYVKLTTDMDPSQQ
notes: intersectin (intersectin 1 by the antibody's name Intersectin/ESE-1), short variant, told from the long variant by the size of its band; endogenous in rat brain synaptosomes; they are told apart only as bands on the blot; not checked; also called S-intersectin; S-Int; source: endogenous, rat brain synaptosome lysate

Key:
Assay in all cases: co-IP; fractional recovery: immunoprecipitate from rat brain synaptosome lysate on beads split in three aliquots, 15 min on ice in RIPA buffer with 150, 650 or 1150 mM total salt; what stayed on the beads found by Western blot and densitometry; FR = recovery at 1150 mM / recovery at 150 mM, normalised to the FR of the IP-protein
[1] = target: stonin2 (rat (endogenous in rat brain synaptosomes)) (UniProt D4AB66)
stonin2 = target: B2; conditions: partners not purified
AP180 = target: T1, AP180 (rat (endogenous in rat brain …, UniProt Q05140 1-915)); conditions: partners not purified
T1 construct: AP180 (clathrin coat assembly protein), endogenous in rat brain synaptosomes; source: endogenous, rat brain synaptosome lysate
T1 sequence (looked up): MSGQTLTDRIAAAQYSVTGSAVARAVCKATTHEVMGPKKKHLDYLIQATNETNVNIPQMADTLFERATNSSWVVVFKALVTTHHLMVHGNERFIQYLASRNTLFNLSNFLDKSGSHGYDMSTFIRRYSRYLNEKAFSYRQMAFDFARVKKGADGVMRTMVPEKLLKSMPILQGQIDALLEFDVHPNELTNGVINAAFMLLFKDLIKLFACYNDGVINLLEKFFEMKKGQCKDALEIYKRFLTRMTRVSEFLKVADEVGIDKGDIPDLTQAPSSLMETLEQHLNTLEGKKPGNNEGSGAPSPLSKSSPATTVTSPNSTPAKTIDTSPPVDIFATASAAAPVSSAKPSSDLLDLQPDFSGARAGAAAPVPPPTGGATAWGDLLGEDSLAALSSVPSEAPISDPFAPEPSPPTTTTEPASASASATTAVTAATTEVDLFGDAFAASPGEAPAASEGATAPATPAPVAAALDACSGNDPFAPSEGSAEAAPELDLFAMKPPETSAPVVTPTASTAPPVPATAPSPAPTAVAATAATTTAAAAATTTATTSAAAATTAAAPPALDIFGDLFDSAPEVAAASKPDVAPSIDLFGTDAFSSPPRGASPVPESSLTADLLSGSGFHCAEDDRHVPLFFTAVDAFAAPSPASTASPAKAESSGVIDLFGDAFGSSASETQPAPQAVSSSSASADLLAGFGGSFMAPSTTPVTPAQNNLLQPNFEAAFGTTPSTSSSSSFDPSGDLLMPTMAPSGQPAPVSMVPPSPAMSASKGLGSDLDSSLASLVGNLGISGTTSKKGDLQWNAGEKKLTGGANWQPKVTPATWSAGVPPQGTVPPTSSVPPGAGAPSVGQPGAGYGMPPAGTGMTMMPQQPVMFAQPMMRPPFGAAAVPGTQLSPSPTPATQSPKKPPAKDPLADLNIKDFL

heavy chain clathrin = target: T2, heavy chain clathrin (rat (endogenous in rat brain …, UniProt P11442 1-1675)); conditions: partners not purified
T2 construct: clathrin heavy chain, endogenous in rat brain synaptosomes; also called H-clathrin; H-Cl; source: endogenous, rat brain synaptosome lysate
T2 sequence (P11442 whole entry): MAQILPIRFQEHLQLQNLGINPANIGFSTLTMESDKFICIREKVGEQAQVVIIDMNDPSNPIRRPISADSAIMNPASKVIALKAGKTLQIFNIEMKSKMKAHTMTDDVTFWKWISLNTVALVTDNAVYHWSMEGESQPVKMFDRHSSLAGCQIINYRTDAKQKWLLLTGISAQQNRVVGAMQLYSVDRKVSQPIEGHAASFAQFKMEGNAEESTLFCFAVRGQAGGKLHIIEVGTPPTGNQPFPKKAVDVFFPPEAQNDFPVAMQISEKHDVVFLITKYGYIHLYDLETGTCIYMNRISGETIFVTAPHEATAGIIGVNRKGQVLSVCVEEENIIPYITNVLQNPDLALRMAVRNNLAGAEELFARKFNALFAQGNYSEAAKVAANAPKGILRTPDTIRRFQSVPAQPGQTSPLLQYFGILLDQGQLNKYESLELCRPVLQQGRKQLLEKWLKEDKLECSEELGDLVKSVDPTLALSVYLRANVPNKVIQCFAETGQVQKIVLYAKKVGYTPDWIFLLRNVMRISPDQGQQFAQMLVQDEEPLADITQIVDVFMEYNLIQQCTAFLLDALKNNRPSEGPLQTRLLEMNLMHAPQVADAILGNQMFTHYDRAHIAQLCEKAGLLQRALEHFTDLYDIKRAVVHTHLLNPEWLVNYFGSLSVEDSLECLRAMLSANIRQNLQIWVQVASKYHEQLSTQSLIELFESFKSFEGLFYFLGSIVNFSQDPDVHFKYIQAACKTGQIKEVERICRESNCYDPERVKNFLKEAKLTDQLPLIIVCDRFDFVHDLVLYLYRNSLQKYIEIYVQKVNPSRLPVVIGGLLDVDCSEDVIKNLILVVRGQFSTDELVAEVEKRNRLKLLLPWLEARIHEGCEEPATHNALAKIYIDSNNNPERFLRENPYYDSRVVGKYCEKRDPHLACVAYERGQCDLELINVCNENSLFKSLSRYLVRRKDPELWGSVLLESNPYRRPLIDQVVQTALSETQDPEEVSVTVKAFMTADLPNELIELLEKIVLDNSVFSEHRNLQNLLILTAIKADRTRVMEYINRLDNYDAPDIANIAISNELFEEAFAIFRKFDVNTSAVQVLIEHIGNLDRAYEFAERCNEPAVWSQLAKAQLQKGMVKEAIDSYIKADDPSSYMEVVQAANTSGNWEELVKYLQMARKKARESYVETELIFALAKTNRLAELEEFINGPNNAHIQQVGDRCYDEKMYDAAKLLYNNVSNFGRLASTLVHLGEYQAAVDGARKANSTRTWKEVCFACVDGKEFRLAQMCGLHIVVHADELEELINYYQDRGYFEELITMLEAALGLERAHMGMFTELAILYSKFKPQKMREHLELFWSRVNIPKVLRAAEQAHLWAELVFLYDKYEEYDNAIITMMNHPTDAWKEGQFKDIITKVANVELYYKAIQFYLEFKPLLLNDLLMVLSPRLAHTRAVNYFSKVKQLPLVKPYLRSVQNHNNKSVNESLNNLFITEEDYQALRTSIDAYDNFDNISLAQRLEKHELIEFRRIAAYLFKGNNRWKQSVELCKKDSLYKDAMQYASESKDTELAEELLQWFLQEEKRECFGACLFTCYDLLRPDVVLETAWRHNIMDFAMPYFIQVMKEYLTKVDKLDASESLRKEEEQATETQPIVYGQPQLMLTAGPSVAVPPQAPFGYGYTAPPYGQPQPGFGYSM

| Molecule | fractional recovery (FR; recovery at 1150 mM salt / recovery at 150 mM salt) [1] | fractional recovery (FR; recovery at 1150 mM salt / recovery at 150 mM salt) (stonin2) | further results |
| --- | --- | --- | --- |
| long-variant intersectin (natural protein) | 1 |  |  |
| light chain clathrin (from UniProt P08081 1-248) (natural protein) | 0.84 |  |  |
| B1 |  | 0.98 |  |
| B2 |  |  | fractional recovery (FR; recovery at 1150 mM salt / recovery at 150 mM salt) (AP180): 1 ± 0.17; fractional recovery (FR; recovery at 1150 mM salt / recovery at 150 mM salt) (heavy chain clathrin): 0.78 |
| B3 |  | 0.83 |  |
